Experiments:
[1] = biological target: T1, human LILRB1 overexpressed on CHO cells (human, UniProt Q8NHL6 24-650); experiment: flow cytometry (iQue) on CHO cells overexpressing LILRB1, threefold dilutions
T1 construct: Full-length protein expressed from a vector in CHO cells; also called AAH15731
Description: In order to determine EC₅₀ values of the antibodies prepared in Examples 1 and 4 for binding to human LILRB1-overexpressing cell lines, a cell surface binding assay was performed. Representing the prepared antibodies, EC₅₀ values of E3.1 and H11 antibodies were measured. The CHO cells prepared in Example 5, which overexpress LILRB1 on surface, were added to U-bottom 96-well tissue culture plate (BD Falcon) at the amount of 1×10⁵ cells/well. Threefold serial dilutions of E3.1 and H11 antibodies were prepared starting from the final concentrations of 600 ug/mL and 27 ug/mL, respectively. The cells were treated with each of the diluted antibodies and incubated at 4° C. for 60 minutes. After washing with FACS buffer, the cells were treated with anti-human Fc-biotin antibody (Invitrogen) and incubated at 4° C. for 30 minutes. After washing with FACS buffer, the cells were treated with streptavidin (BD Pharmigen) labeled with PE fluorescence and incubated at 4° C. for 30 minutes. After washing with FACS buffer, the cells were resuspended and subjected to analysis using iQue screener (Sartorius). EC₅₀ values were calculated using nonlinear regression formula of GraphPad Prism software, and the obtained results are shown in Table 28: […]

[2] = biological target: T2, human LILRA1 overexpressed on CHO cells (human, UniProt O75019 17-489); experiment: flow cytometry (iQue screener), CHO cells overexpressing LILRA1, anti-human Fc-biotin + streptavidin-PE [panel LILRA1]
T2 construct: Full-length protein expressed in CHO cells; also called NP_006854
Description: (§1) In order to confirm whether or not the selected antibodies bind to human LILR family proteins other than LILRB1, a cell surface binding assay was performed. The CHO cells (prepared in Example 5) expressing each of various LILR family proteins on surface were added to U-bottom 96-well tissue culture plate (BD Falcon) at the amount of 1×10⁵ cells/well. The cells in each well were treated with the selected antibody in the final concentration of 20 ug/mL and incubated at 4° C. for 60 minutes. After washing with FACS buffer, the cells were treated with anti-human Fc-biotin antibody (Invitrogen) and incubated at 4° C. for 30 minutes. After washing with FACS buffer, the cells were treated with streptavidin (BD Pharmigen) labeled with PE or FITC fluorescence and incubated at 4° C. for 30 minutes. After washing with FACS buffer, the cells were resuspended and subjected to analysis using iQue screener (Sartorius). The cells treated with each LILR protein specific antibody (Table 27) were used as a positive control, and the cells treated with human IgG4 isotype control antibody (Biolegend) were used as a negative control.

[3] = biological target: T3, human LILRB2 overexpressed on CHO cells (human, UniProt Q8N423 22-597); experiment: flow cytometry (iQue screener), CHO cells overexpressing LILRB2, anti-human Fc-biotin + streptavidin-PE [panel LILRB2]
T3 construct: Full-length protein expressed in CHO cells; also called AAH36827
Description: as §1

[4] = biological target: T4, human LILRA2 overexpressed on CHO cells (human, UniProt Q8N149 24-483); experiment: flow cytometry (iQue screener), CHO cells overexpressing LILRA2, anti-human Fc-biotin + streptavidin-PE [panel LILRA2]
T4 construct: Full-length protein expressed in CHO cells; also called AAH17412
Description: as §1

[5] = biological target: T5, human LILRA6 overexpressed on CHO cells (human, UniProt Q6PI73 24-481); experiment: flow cytometry (iQue screener), CHO cells overexpressing LILRA6, anti-human Fc-biotin + streptavidin-PE [panel LILRA6]
T5 construct: Full-length protein expressed in CHO cells; also called NP_001347096
Description: as §1

[6] = biological target: T6, human LILRB4 overexpressed on CHO cells (human, UniProt Q8NHJ6 22-448); experiment: flow cytometry (iQue screener), CHO cells overexpressing LILRB4, anti-human Fc-biotin + streptavidin-PE [panel LILRB4]
T6 construct: Full-length protein expressed in CHO cells; also called NP_001265355
Description: as §1

[7] = biological target: T7, human LILRA4 overexpressed on CHO cells (human, UniProt P59901 24-499); experiment: flow cytometry (iQue screener), CHO cells overexpressing LILRA4, anti-human Fc-biotin + streptavidin-PE [panel LILRA4]
T7 construct: Full-length protein expressed in CHO cells; also called NP_036408
Description: as §1

[8] = biological target: T8, human LILRB5 overexpressed on CHO cells (human, UniProt O75023 24-590); experiment: flow cytometry (iQue screener), CHO cells overexpressing LILRB5, anti-human Fc-biotin + streptavidin-PE [panel LILRB5]
T8 construct: Full-length protein expressed in CHO cells; also called NP_006831
Description: as §1

[9] = biological target: T9, human LILRA5 overexpressed on CHO cells (human, UniProt A6NI73 42-299); experiment: flow cytometry (iQue screener), CHO cells overexpressing LILRA5, anti-human Fc-biotin + streptavidin-PE [panel LILRA5]
T9 construct: Full-length protein expressed in CHO cells; also called NP_067073
Description: as §1

[10] = biological target: T10, human LILRB3 overexpressed on CHO cells (human, UniProt O75022 24-631); experiment: flow cytometry (iQue screener), CHO cells overexpressing LILRB3, anti-human Fc-biotin + streptavidin-PE [panel LILRB3]
T10 construct: Full-length protein expressed in CHO cells; also called XP_006726377
Description: as §1

[11] = biological target: T11, human LILRA3 overexpressed on CHO cells (human, UniProt Q8N6C8 24-439); experiment: flow cytometry (iQue screener, BL1-H channel), CHO cells overexpressing LILRA3, anti-human Fc-biotin + labelled streptavidin [panel LILRA3]
T11 construct: Full-length protein expressed in CHO cells; also called AAH28208
Description: as §1

[12] = biological target: T12, LILRB1 expressed on the surface of human natural killer cell KHYG-1 (human, UniProt Q8NHL6 24-650); experiment: flow cytometry (iQue) on KHYG-1 NK cells, antibody 50 ug/mL
T12 construct: whole, on cells; also called LILRB1 on KHYG-1 cells; human NK cells (surface)
Description: In order to test whether or not 93 antibodies selected in Example 1.4 bind LILRB1 expressed on surface of immune cells, natural killer cell (NK cell) surface binding assay was performed. A human NK cell, KHYG-1 cell (JCRB) was cultured in RPMI 1640 medium (Gibco) supplemented with 10%(w/v) of FBS (Gibco) and 100 U/mL of interleukin-2 (Novartis). KHYG-1 cells were added to a U-bottom 96-well tissue culture plate (BD Falcon) at the amount of 5×10⁴ cells/well. Each of the selected antibodies was added to the well to the final concentration of 50 μg/mL per well and incubated at 4° C. for 1 hour.
In order to see the level of LILRB1-specific binding of the selected antibodies, a human IgG4 isotype control antibody (Biolegend) was treated in the same manner. After washing with FACS buffer, the cells were treated with an anti-human Fc-biotin antibody (life technologies) and incubated at 4° C. for 1 hour. After washing with FACS buffer, the cells were treated with streptavidin PE (BD Pharmigen) and incubated at 4° C. for 30 minutes. After washing with FACS buffer, the cells were resuspended and subjected to analysis using iQue screener (Sartorius).

[13] = biological target: T13, human LILRB1 protein (LILRB1-His, RnD systems Cat. No. 8989-T2) (human, UniProt Q8NHL6 24-458); experiment: SPR (Biacore T200), antibody captured by anti-human IgG (Fc), LILRB1-His injected
T13 construct: Bought protein; also called human LILRB1-His; not shown: His tag
Description: The binding affinities of the 93 antibodies, which were selected in Example 1.3, to the antigen, LILRB1, were measured using Biacore T200 (GE healthcare). An anti-human IgG (Fc) antibody (GE healthcare, Cat. No. BR-1008-39, final concentration of 25 μg/mL) was flowed at the flow rate of 5 μL/min for 360 seconds to be immobilized at 5000-7000 RU on Series S Sensor Chip CM5 (GE healthcare, Cat. No. BR-1005-30) using Amine Coupling Kit (GE healthcare, Cat. No. BR-1000-508).

T13 sequence (Q8NHL6 24-458 limits assumed): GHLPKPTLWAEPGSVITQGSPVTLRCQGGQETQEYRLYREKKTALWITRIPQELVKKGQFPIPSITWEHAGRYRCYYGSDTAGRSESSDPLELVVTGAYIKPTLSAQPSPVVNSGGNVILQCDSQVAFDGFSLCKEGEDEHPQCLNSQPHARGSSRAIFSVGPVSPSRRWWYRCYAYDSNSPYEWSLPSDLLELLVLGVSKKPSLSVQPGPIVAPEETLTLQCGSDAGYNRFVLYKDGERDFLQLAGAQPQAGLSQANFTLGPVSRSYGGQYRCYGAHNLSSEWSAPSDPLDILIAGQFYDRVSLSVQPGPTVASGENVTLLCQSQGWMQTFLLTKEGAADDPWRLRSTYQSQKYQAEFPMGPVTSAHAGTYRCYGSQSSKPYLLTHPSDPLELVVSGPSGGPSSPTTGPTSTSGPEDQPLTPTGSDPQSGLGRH
T12 sequence (Q8NHL6 24-650): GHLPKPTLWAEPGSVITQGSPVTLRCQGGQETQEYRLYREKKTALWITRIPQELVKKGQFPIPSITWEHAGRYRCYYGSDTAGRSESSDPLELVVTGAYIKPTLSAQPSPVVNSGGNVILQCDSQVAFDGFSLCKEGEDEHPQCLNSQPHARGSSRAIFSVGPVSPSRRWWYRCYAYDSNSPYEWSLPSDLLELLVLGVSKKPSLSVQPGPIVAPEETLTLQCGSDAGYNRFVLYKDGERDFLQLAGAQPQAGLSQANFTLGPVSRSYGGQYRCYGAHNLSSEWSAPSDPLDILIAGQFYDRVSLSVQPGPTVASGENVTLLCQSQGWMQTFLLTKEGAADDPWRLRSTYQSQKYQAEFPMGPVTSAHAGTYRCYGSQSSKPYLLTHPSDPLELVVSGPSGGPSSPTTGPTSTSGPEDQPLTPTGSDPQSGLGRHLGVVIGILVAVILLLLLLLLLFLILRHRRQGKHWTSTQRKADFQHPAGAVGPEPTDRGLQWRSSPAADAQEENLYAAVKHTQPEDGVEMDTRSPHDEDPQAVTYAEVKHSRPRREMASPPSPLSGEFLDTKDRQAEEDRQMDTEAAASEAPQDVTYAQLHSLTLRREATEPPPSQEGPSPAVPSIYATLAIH
T9 sequence (A6NI73 42-299 limits assumed): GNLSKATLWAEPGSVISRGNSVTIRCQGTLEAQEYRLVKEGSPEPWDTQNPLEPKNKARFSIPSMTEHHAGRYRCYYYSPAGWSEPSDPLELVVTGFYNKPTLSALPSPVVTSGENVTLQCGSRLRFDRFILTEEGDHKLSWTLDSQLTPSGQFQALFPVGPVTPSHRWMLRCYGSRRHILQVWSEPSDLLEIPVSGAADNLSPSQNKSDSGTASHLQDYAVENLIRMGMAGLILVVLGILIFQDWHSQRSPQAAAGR
T6 sequence (Q8NHJ6 22-448 D223G/Q414R limits assumed): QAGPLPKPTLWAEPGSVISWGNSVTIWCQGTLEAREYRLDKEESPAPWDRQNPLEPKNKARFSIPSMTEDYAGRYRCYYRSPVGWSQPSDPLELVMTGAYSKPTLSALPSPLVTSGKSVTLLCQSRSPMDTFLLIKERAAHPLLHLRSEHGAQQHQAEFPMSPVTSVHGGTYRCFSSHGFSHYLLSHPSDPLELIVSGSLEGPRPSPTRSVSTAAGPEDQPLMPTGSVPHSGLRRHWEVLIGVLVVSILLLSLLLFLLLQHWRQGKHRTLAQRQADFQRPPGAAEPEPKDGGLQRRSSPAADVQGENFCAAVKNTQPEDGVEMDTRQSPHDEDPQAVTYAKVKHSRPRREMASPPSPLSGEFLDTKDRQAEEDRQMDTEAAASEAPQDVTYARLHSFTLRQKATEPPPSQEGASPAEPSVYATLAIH
T5 sequence (Q6PI73 24-481 limits assumed): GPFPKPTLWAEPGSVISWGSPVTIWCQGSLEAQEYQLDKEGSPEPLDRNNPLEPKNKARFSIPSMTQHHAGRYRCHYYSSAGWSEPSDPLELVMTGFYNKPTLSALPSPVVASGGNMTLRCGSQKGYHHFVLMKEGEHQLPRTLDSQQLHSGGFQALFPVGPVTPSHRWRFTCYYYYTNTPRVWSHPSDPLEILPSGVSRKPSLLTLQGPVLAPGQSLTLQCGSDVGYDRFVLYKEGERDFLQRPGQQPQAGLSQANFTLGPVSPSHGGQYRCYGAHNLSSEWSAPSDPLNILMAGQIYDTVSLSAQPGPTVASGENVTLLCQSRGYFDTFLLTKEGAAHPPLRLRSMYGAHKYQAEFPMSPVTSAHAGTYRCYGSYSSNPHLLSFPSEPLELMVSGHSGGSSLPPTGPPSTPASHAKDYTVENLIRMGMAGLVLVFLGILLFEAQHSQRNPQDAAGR
T8 sequence (O75023 24-590 P542R limits assumed): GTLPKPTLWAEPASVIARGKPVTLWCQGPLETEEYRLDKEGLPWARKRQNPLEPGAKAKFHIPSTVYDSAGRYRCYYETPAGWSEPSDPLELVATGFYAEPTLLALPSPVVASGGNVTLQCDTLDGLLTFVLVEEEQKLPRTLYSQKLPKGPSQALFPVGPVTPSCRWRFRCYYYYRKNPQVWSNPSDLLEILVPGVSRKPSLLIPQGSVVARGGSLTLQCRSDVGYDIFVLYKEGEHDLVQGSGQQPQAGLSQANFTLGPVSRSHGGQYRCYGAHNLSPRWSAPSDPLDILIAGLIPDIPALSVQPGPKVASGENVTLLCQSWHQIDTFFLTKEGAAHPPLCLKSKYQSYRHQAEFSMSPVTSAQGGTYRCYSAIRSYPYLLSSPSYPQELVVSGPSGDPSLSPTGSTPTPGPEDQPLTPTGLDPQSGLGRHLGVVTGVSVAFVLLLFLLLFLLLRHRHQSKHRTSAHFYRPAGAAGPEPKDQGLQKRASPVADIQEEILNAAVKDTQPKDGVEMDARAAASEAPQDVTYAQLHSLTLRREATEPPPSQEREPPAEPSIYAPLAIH
T7 sequence (P59901 other isoform, or with tags, fused parts or gaps limits assumed): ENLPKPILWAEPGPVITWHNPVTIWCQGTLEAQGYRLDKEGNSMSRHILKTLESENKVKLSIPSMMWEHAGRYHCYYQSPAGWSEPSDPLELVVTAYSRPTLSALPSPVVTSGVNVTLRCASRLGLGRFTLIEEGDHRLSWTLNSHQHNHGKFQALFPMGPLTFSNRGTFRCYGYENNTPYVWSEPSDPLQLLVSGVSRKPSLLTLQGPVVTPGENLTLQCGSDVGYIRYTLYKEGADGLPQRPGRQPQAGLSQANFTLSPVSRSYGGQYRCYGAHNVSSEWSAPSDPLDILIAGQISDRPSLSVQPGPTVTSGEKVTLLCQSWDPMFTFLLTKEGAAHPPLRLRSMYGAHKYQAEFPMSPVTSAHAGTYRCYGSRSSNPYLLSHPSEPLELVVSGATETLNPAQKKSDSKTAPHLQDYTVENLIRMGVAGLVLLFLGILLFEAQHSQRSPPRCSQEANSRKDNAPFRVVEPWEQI
T1 sequence (Q8NHL6 other isoform, or with tags, fused parts or gaps limits assumed): as the sequence (Q8NHL6 24-650) above, with L45P, I119T, S132I, E602K counted along it
T11 sequence (Q8N6C8 24-439 A105V limits assumed): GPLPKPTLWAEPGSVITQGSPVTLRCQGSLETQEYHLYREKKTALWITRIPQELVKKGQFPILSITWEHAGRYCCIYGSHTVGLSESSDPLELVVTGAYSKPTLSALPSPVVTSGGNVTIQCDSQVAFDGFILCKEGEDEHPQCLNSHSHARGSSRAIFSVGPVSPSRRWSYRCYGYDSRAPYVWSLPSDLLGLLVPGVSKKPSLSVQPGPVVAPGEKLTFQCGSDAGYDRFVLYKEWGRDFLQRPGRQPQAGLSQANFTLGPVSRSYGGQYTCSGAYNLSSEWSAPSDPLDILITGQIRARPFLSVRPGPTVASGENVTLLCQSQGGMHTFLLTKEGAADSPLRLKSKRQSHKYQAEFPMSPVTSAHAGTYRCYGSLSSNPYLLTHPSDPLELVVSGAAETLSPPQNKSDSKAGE
T10 sequence (O75022 other isoform, or with tags, fused parts or gaps limits assumed): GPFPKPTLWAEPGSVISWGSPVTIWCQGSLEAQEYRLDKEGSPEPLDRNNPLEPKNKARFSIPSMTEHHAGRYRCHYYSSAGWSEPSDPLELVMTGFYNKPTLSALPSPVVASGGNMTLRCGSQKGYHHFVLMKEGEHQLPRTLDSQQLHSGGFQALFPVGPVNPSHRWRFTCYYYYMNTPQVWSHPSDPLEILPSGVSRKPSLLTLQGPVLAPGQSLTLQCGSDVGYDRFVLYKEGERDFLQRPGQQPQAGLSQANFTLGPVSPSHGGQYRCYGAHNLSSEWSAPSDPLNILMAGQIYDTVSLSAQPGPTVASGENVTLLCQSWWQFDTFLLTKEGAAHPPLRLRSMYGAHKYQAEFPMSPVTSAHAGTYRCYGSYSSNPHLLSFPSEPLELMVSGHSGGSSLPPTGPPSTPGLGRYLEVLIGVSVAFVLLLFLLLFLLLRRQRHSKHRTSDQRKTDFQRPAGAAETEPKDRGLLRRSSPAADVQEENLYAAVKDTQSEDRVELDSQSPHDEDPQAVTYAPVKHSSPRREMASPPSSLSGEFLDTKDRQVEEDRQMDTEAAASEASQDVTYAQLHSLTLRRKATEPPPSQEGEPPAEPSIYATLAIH
T3 sequence (Q8N423 other isoform, or with tags, fused parts or gaps limits assumed): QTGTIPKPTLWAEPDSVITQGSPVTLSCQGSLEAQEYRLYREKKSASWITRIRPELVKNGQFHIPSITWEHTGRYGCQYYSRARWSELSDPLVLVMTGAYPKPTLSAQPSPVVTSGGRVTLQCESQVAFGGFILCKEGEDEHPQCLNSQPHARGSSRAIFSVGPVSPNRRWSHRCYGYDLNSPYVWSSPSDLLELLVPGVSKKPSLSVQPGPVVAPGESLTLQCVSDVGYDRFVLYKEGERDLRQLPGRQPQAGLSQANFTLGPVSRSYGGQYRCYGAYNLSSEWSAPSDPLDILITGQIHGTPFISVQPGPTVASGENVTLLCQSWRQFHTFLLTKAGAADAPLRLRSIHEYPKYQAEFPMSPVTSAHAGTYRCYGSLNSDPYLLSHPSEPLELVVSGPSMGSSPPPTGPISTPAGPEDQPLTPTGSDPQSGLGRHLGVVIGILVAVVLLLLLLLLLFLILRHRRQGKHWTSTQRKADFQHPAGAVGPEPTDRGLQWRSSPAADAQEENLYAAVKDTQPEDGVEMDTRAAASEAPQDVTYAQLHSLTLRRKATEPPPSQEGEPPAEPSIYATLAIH

Binder | EC50 [1] [nM] | binding result [2] | binding result [3] | binding result [4] | binding result [5] | binding result [6] | binding result [7] | binding result [8] | binding result [9] | binding result [10] | binding result [11] | % of population 2 [12] [%] | Mean Fluorescence Intensity [12] | Kd [13] [nM] | koff [13] [s⁻¹] | kon [13] [M⁻¹ s⁻¹]
anti-LILRB1 antibody E3.1 (antibody, human IgG4 S228P, lambda, human IgG4; heavy chain of E3; also called Antibody clone E3.1) heavy: not shown light: SYELTQDPAVSVALGQTVRITCQGDSLRNFYASWYQQKSGQAPVLVMYGKNNRPSGIPDRFSGSTSGNTASLTITGAQAEDEADYYCNSRDSSGSHLTGVFGGGTKVTVLGQPKANPTVTLFPPSSEELQANKATLVCLISDFYPGAVTVAWKADGSPVKAGVETTKPSKQSNNKYAASSYLSLTPEQWKSHRSYSCQVTHEGSTVEKTVAPTECS | 7.15 | no binding (tested: 20 ug/mL) | no binding (tested: 20 ug/mL) | no binding (tested: 20 ug/mL) | no binding (tested: 20 ug/mL) | no binding (tested: 20 ug/mL) | no binding (tested: 20 ug/mL) | no binding (tested: 20 ug/mL) | no binding (tested: 20 ug/mL) | no binding (tested: 20 ug/mL) | no binding (tested: 20 ug/mL) |  |  |  |  | 
anti-LILRB1 antibody H11 (antibody, human IgG4 S228P, V domains shown, human IgG4, lambda light chain; also called Antibody clone H11) VH: QVQLVQSGAEVKKPGASVKVSCKASGYTFTSYYMHWVRQAPGQGLEWMGIINPSGGSTSYAQKFQGRVTMTRDTSTSTVYMELSSLRSEDTAVYYCARDAGSSSDYWGRGTLVTVSS VL: SYELTQDPAASVALGQTVRITCQGDSLRSYYASWYQQKPGQAPVVVIYGRNNRPSGIPDRFSGSSSGDTASLTITGAQAEDEADYYCKSRDSSGNHYVFGTGTKLTVLG | 0.376 |  |  |  | no binding (tested: 20 ug/mL) | no binding (tested: 20 ug/mL) | no binding (tested: 20 ug/mL) | no binding (tested: 20 ug/mL) | no binding (tested: 20 ug/mL) | no binding (tested: 20 ug/mL) | no binding (tested: 20 ug/mL) | 32.6 | 245000 | 7.62 | 0.00226 | 296000
anti-LILRB1 antibody G1 (antibody, human IgG4 S228P, V domains shown, human IgG4, lambda light chain; also called Antibody clone G1) VH: EVQLVQSGAEVKKPGSSVKVSCKASGGTFSSYGISWVRQAPGQGLEWMGWISAYNGNTNYAQELQGRVTMTTDTSTSTAYMELRSLRSDDTAVYYCARVGVAGKLDYWGQGTLVTVSS VL: SYELTQPPSLSVSPGQTASITCSGYKLGDRYVSWYQQKTGQSPVVVIYKDSQRPSGVPERFSGSNSGNTATLTISGTQAMDEADYYCQAWDSGTGVFGGGTKLTVLG |  |  |  |  |  |  |  |  |  |  |  | 56.2 | 321000 | 3.28 | 0.00142 | 433000
anti-LILRB1 antibody G9 (antibody, human IgG4 S228P, V domains shown, human IgG4, lambda light chain; also called Antibody clone G9) VH: QVQLVQPGAEVKKPGESLKISCKGSGYSFTSYWIGWVRQMPGKGLEWMGIIYPGDSDTRYSPSFQGQVTISADKSISTAYLQWSSLKASDTAMYYCASQYYDGGYYMDVWGQGTLVTVSS VL: QSALTQPASVSGSPGQSITISCTGSSSDVGGYNYVSWYQQHPGKAPKLMIYDVSNRPSGVSDRFSGSKSGNMASLTISGLQAEDEADYYCSSYTGSSTLDVLFGGGTKLTVLG |  |  |  |  |  |  |  |  |  |  |  | 41.3 | 263000 | 3.05 | 0.000436 | 143000
anti-LILRB1 antibody G11 (antibody, human IgG4 S228P, V domains shown, human IgG4, lambda light chain; also called Antibody clone G11) VH: QVQLVQSGAEVKKPGESLKISCKGSGYSFTSYWIGWVRQMPGKGLEWMGIIYPGDSDTRYSPSFQGQVTISADKSISTAYLQWSSLKASDTAMYYCASQYYDGGYYMDVWGQGTLVTVSS VL: QSALTQPRSVSGSPGQSVTISCTGTSSDVGGYNYVSWYQQHPGKAPKLMIYDVSKRPSGVPDRFSGSKSGNTASLTISGLQAEDEADYYCSSYSSSSTLVVFGGGTKLTVLG |  |  |  |  |  |  |  |  |  |  |  | 40.1 | 263000 | 45.2 | 0.00205 | 45400
anti-LILRB1 antibody H2 (antibody, human IgG4 S228P, V domains shown, human IgG4, lambda light chain; also called Antibody clone H2) VH: QVQLVQSGAEVKKPGASVKVSCKASGYTFTSYDIHWVRQATGQGLEWMGWISAYNGNTNYAQKLQGRVTMTTDTSTSTAYMELRSLRSDDTAVYYCARDGGDAFDIWGQGTLVTVSS VL: SYELTQDPAVSVALGQTVRITCQGDSLRNYYASWYQQKPGQAPILVISGNNKRPSGIPDRFSGSSSGDTASLTISGAQAEDEADYYCNSLDSTYNHPIFGGGTKVTVLG |  |  |  |  |  |  |  |  |  |  |  | 29 | 239000 | 16.2 | 0.0095 | 586000
